{
  "source": "patent US20240093191A1",
  "about": "“COMPOSITIONS AND METHODS FOR TREATING DISEASE ASSOCIATED WITH DUX4 OVEREXPRESSION” (RESEARCH INSTITUTE AT NATIONWIDE CHILDREN'S HOSPITAL, priority 2021, published 2024)",
  "assay_type_in_all_cases": "cell-based, human",
  "key": {"[1]": {"system": "DUX4 ORF (RenLuc-DUX4 ORF)", "assay": "Dual-luciferase assay, RenLuc-DUX4 ORF reporter co-transfected with miDUX4 plasmids in HEK293 cells", "settings": "HEK293, 24 h", "protocol": "Dual Luciferase Assay. (See also FIGS. 1A, 3A-B, 4A-B, 5B, and 16B-C.) This assay was performed as previously described by Wallace et al. (Mol. Ther. Methods Clin. Dev. 8: 121-30 (2018)) and following the dual-luciferase reporter assay system (Promega) protocol with some modifications. All plasmid constructs had the psiCheck2 dual luciferase reporter plasmid (Promega) as backbone that contains separate Renilla and Firefly luciferase genes, where the former contains the various target sequences used in the experiments of the disclosure, and the latter serves as a transfection normalizer (control). All DUX4 and control sequences were cloned downstream of the Renilla luciferase stop codon, serving as a 3′UTR. HEK293 cells were pre-plated 24h before transfection. Cells were then co-transfected with the luciferase DUX4 reporter and individual microRNA expression plasmids in an increasing luciferase DUX4 reporter:miRNA molar ratio using Lipofectamine 2000 (Invitrogen). Luciferase activity was measured 24h or 48h after transfection. DUX4 gene silencing was determined as previously described [Wallace et al., Mol. Ther. Methods Clin. Dev. 8: 121-30 (2018)]. Triplicate data were averaged per experiment, and individual experiments were performed 3 times. Results were reported as the average ratio of Renilla to Firefly luciferase activity±SEM for all combined experiments.\nAccordingly, two new mi405 constructs, i.e., mi405F and mi405NF, were designed. […] To assess the inhibition efficiency of the three mi405 constructs, a dual-luciferase assay and western blot analysis, similar to what was described for mir-675, were carried out. In the dual-luciferase assay, U6.mi405, U6.mi405F, or U6.mi405NF was co-transfected into HEK293 cells along with the RenLuc-DUX4 ORF (a construct expressing the open reading frame of DUX4 as a 3′UTR sequence of Renilla Luciferase). 24 h after transfection, U6.mi405, U6.mi405F, and U6.mi405NF reduced the relative Renilla luciferase activity by 85±1%, 89±1%, and 66±1% (P<0.0001, ANOVA, N=3), respectively, when tested against the RenLuc-DUX4 ORF construct."}, "[2]": {"system": "DUX4-FL (DUX4 ORF + 3'UTR, RenLuc-DUX4-FL)", "assay": "Dual-luciferase assay, RenLuc-DUX4-FL reporter co-transfected with miRNA plasmids in HEK293 cells", "settings": "positive control, molar ratio not stated, 48 h", "text": "FIG. 1A. Dual-luciferase assay to test the ability of U6.mir-675 to target DUX4. Shown here is the mir-675 expression plasmid used in this study. In this construct, the RNA polymerase III U6 promoter (U6p) controls the expression of mir-675. A terminal signal formed of a stretch of six T nucleotides allows the termination of transcription. On the right, the secondary structure of the mir-675 along with its 5′ and 3′ end flanking sequences (Boxed) is shown. At the 5′ end, the flanking sequence is of 40 nucleotides long and at the 3′ end, the flanking sequence is of 47 nucleotides long starting from the nucleotide at position 114. U6.mir-675 was tested to target DUX4 using the dual-luciferase assay. To do this, DUX4 was cloned in the RenLuc-DUX4-FL expression plasmid (FIG. 1A), i.e., DUX4-FL (DUX4 ORF without V5 tag+3′UTR) was PCR amplified using CMV.DUX4-FLΔV5 as template with the following primers: forward: 5′ […] 3′ (SEQ ID NO: 125), reverse: 5′ […] 3′ (SEQ ID NO: 126). The PCR product was then cloned into a previously designed RenLuc SD5 mutant plasmid using XhoI/SpeI restriction sites and the RenLuc.SD5 mutant-DUX4 3′UTR plasmid backbone. The Renilla luciferase gene has a splicing donor mutation (*SID5) that prevents the alternative splicing of the DUX4-FL mRNA (Ansseau et al. (2015) PLoS One, 10, e0118813). The dual-luciferase assay was performed by co-transfecting the RenLuc-DUX4-FL and U6.mir-675 expression plasmids into the human embryonic kidney HEK293 cells. 48 hours after transfection, both the Renilla and Firefly luciferase activities were measured. The latter was used to normalize for Renilla luciferase activity. The non-targeting RenLuc control backbone plasmid (RenLuc) was co-transfected with U6.mir-675 and the RenLuc-DUX4-FL co-transfected with U6.milacZ as negative control reactions. In the other reactions, mir-675 reduced the relative Renilla luciferase activity by 24±3% (P<0.0001, ANOVA, N=3), 28±2% (P<0.0001, ANOVA, N=3) and 33±3% (P<0.0001, ANOVA, N=3) at a molarity ratio U6.mir-675: RenLuc-DUX4-FL (n:n) of 10 to 1, 20 to 1 and 40 to 1, respectively. All readings were normalized to the U6.milacZ (negative control). Six replicate data were averaged per experiment and individual experiments were performed in triplicate (N=3). Results were reported as the average relative Renilla luciferase activity±SEM for all combined experiments. […] A representative western blot gel and the quantification results of three independent western blot replicates (N=3) performed on 15 μg of total protein extracts collected from HEK293 cells 24 hours after co-transfection with the AAV.CMV.DUX4-FL and the U6.mir-675 or the human long non-coding H19 expression plasmid (CMV.H19) is shown here. […]"}, "DUX4 protein": {"system": "DUX4 protein", "assay": "Western blot of V5-tagged DUX4 protein in co-transfected HEK293 cells", "settings": "1:4 DUX4:mi405 molar ratio; HEK293; 24 h; normalized to miGFP; N=2"}},
  "data": [
    {"molecule": "U6.mi405: original artificially designed miDUX4 (mi405) U6 expression plasmid, Wallace et al. (nucleic acid) DNA: ACGCCGCCATCTCTAGGCCCGCGCCGGCCCCCTCGCACAGACTTGTGGGAGAAGCTCGGCTACTCCCCTGCCCCGGTTAATTTGCATATAATATTTCCTAGTAACTATAGAGGCTTAATGTGCGATAAAAGACAGATAATCTGTTCTTTTTAATACTAGCTACATTTTACATGATAGGCTTGGATTTCTATAAGAGATACAAATACTAAATTATTATTTTAAAAAACAGCACAAAAGGAAACTCACCCTAACTGTAAAGTAATTGTGTGTTTTGAGACTATAAATATCCCTTGGAGAAAAGCCTTGTTTGCGTTTAGTGAACCGTCAGATGGTACCGTTTAAACTCGAGTGAGCGATCCAGGATTCAGATCTGGTTTCTGTAAAGCCACAGATGGGAAACCAGATCTGAATCCTGGACTGCCTACTAGAGCGGCCGCCACAGCGGGGAGATCCAGACATGATAAGATACATTTTTT", "values": [
      {"measurement": "reduction of relative Renilla luciferase activity", "setting": "[1]; 1:4 DUX4:mi405 molar ratio, normalized to miGFP", "value": "85±1", "unit": "%"},
      {"measurement": "reduction of Renilla luciferase activity", "setting": "[1]; DUX4:mi405 molar ratio 2 to 1, normalized to U6.miGFP", "value": "62±2", "unit": "%"},
      {"measurement": "reduction of relative Renilla luciferase activity", "setting": "[2]", "value": "80±2", "unit": "%"},
      {"measurement": "reduction of DUX4 protein levels", "setting": "DUX4 protein", "value": "79±1", "unit": "%"}
    ]}
  ]
}
